This passage reports Kd results from patent US20230333112 (published 2023).

The target in the experiment is T1, human NKp30 (BKM0179) (human, UniProt O14931).
T1 chain: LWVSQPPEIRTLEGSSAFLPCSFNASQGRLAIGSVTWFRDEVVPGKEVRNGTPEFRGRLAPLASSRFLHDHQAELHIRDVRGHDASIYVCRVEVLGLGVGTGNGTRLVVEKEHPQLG
Description: SPR.

B1: BJM1078 (BJM0407 parental) (antibody, V domains shown)
VH: EIQLLESGGGLVQPGGSLRLSCAVSGFSITTTGYHWNWVRQAPGKGLEWVGYIYSSGSTSYNPSLKSRFTISRDTSKNTFYLQMNSLRAEDTAVYYCARGDWHYFDYWGQGTMVTVSS
VL: QSVTTQPPSVSGAPGQRVTISCSGEKLSDKYVHWYQQLPGTAPKMLIYENDRRPSGVPDRFSGSNSGNSASLAITGLQAEDEADYFCQFWDSTNSAVFGGGTQLTVL
In turn, B1 gave a dissociation constant (Kd) of 1.48 nM.
